Source: the DeepSol protein solubility set

Experiment: soluble on expression in E. coli; label from the status in PepcDB or PDB records

Sequence	soluble on expression in E. coli
MVNKDVTKVCIGKIEELPEQLGKTVYIEDKELAVFKLSDGSIRAIENRCPHKGGVLAEGIVSGQYVFCPMHDWKISLEDGIVQEPDHGCVKTYETLIEGEHVYLVY	not soluble
MGSDKIHHHHHHMSGDTCLCPASGAKPKISGFKGGGLGNKYVQLNVGGSLYYTTVRALTRHDTMLKAMFSGRMEVLTDKEGWILIDRCGKHFGTILNYLRDDTITLPQSRQEIQELMAEAKYYLIQGLVSTCQTALQDKKDSYQPVCNIPIITSLREEDRLIESSTKPVVKLLYNRSNNKYSYTSNSDDHLLKNIELFDKLSLRFNGRVLFIKDVIGDEICCWSFYGQGRKLAEVCCTSIVYATEKKQTKVEFPEARIYEETLNVLLYETPRVPDNSLLEATSRSRSQASPSEDEDTFELRDRVRRIHVKRYSTYDDRQLGHQSTHRD	not soluble
PMLEVFYSGDRPPDRTRKQAFAAEASAIFQRVIGTPPGRLQLIIQIVSPENTLAVIDLDRPDSDTTAEPDQQ	soluble
AHHHHHHGSLCEEKLEVFENGFKDDKHNIEIHVYGGDGRKVLLALIYELYSPEYGSEYVYPFECAKEFWGIYLDSSEVKGEEAELKPLKFISESVKSKIEKELEDIKAPIEVELEKSTIYKVKDGYIVLGKNFLLDHKGRLFVFNKPQVGEIILKYIWKW	soluble
MRFFNKYKLFLDCAYKHLNIVLLDFKTNTVVDQLTIPVQQNLTELAVYHLEKLLKKNKVRNNTVRQFYVTTGPGSFTGQRVGAIIAKTWCTVNPNCQLFALNSLRLQIPYGCGISKISAGNEKNYCGLFTETTSEIALLAKPDFVKLCKANTELPVYENFENIDSIEELFLNNIERFELVENPQNLELLYLKDPVN	soluble
MKTDVRWATFNIRYDNPQDSLNNWQYRKDRVCQFIKDHELDIVGMQEVLHNQFQDLRAGLPEYDGIGVGRDDGKTAGEYAPLFYRKDKYEVLDSNTFWLAENPDSVGMMGWDAVCVRIATWAKFKDKATGKIFMAVNTHFDHVGEEARRQSALLIIRKIKEIVGERPAVVTGDFNVTDASDAYETITTNEFVMKDAYKTAARVTGVDYTFHDFARIPAEDCEKIDFIFVTPQVLVKSCEIPAEVPEALLSDHNPQLADLELEHHHHHH	soluble
MSLDGVLISSREAIAAAWSRVAGEQGVALGPDCLRDHVHGRPGGYTLDYLFGHLPMERRRILKQRVDALEEGADCPLLPGVAAVIRQLRWLDVPLALVTSSWPARIDHVLRQHDLQAAFRTLVSRDDVVHGKPAPDGYRLAAARLGVAPSRCLVFEDSLSGVQAACAAGATCVAIGEESGLLAAGARWSVRDFRELRIVREDDRLYCQHRHPATTGSERSVGVPEGHHHHHH	not soluble
MRKLKYQRDFFPLLHLNYGSNWRCGMDRIAYFKSLLEKNPDNPMVHYSLGLEYFKVKDYENAIKHLERYLELQEDEGAAYRTLAKCYEELGEFQKAIEVLEEGIRQAMKYNHPSMAQEYQQWIEELKGMAF	soluble
MKPRVEILMSTYNGEKFLAEQLDSILAQTHQYFVLTVRDDGSKDGTPDILSRYAATDERITYCVQENRGVVGSFYWLLKNSSPLSNYVAFSDQDDVWLPNKLERALDVLSRYDETLPLLYCSRVEYVSAGLGHLDDSPMMVRPVCLNNALIQNVATGCTVVMNKAARDLLLEREWPPQVLMHDWWSYIVVSAFGKVVYDDFVSIKYRQHGGNVIGGTVSFVSDYRSRIINFLSRRRKGVFGCYDQAYSFWLGYKDELKGESRGIVSQFIESKRSFLSRLNYLTSSQRVYRHRFIDDVLVRLLILSNKYLEHHHHHH	not soluble
MARAIAIDAPLSAGIRRTKKSPIKRASVGGVKKRFSTGTAGPSRRPTAQPRRQSGGIRTVDRSIPANENREVRINLSNLAHTVHSGDLRQLFAEFKIRNVSVNFNEHGKPVGTGDVTLPKRHADRLIQKFAGVSLDGKEIKFAIIDSANIANRVKFPEAPRRAPSNGRPAQRAPKRQNVKSGKPTGGAGAQKKLKAKKPKREAQPKKTLEELDAELDVYMSKA	not soluble
MPSGAEFTRDERQLNQHENPNDAMSDDNSHSSDTVNSKKGFFSLLLSQLFHGEPKNRDELLALIRDSGQNDLIDEDTRDMLEGVMDIADQRVRDIMIPRSQMITLKRNQTLDECLDVIIESAHSRFPVISEDKDHIEGILMAKDLLPFMRSDAEAFSMEKVLRPAVVVPESKRVDRMLKEFRSQRYHMAIVIDEFGGVSGLVTIEDILELIVGEIEDEYDEEEDIDFRQLSRHTWTVRALASIEDFNDAFDTHFSDEEVDTIGGLVMQAFGHLPARGESIDIDGYQFKVAMADSRRIIQVHVKLPDDAPQPKLEE	not soluble
ATAVNGAPRDAALWSSHEQMLAQPLKDSDAEVYDIIKKESNRQRVGLELIASENFASRAVLEALGSCLNNKYSEGYPGQRYYGGTEHIDELETLCQKRALQAYGLDPQCWGVNVQPYSGSPANFAVYTALVEPHGRIMGLDLPDGGHLTHGFMTDKKKISATSIFFESMAYKVNPDTGYIDYDRLEENARLFHPKLIIAGTSCYSRNLDYGRLRKIADENGAYLMADMAHISGLVVAGVVPSPFEHCHVVTTTTHKTLRGCRAGMIFYRRGVRSVDPKTGKEILYNLESLINSAVFPGLQGGPHNHAIAGVAVALKQAMTPEFKEYQRQVVANCRALSAALVELGYKIVTGGSDNHLILVDLRSKGTDGGRAEKVLEACSIACNKNTCPGDKSALRPSGLRLGTPALTSRGLLEKDFQKVAHFIHRGIELTVQIQDDTGPRATLKEFKEKLAGDEKHQRAVRALRQEVESFAALFPLPGLPGF	soluble
MSVESSNQTTSLSSYLLKCAFSFGTAPPSLSPPSSTGSYEEADFSRFVQQNETGHKLTSYQSLANRDPCTIPDELHQEMKSLKKKEEAFKTSLCGFHRRGQKCAYGEKCKFAHSVHELRFPQTKRNHRNYKTVLCNNFSTTGHCKYGIRCQFIHRSMDSTSSNQSNETENITIDLNVQSDVFRAFALDSTSSLPNWHCSALLH	not soluble
MAHHHHHHMNTHVISVGSRWVHHEVTQALRQRRGVRVEVNEELQHCDFASRASSVLYCDAHSAEMQRDQASLVLRLQEARQRCGTQPVILMVRMDSDNEVSLERLSWLNLECGVAQQCGLILVWSLDDAVQYLASLAAYAVTSLEFTGAARPYVGDAPLPVLVDALTQTPQVVTRNDVVRIANRKTSVADALMSEASEWEGIAGLDARKRLVCSTSFAHHLCPRSSASTPLYRPPAAAVSLPLIKPQNLISRSQQESPQRGRQRPLASTRP	not soluble
MSQSLFSQPLNVINVGIAMFSDDLKKQHVEVTQLDWTPPGQGNMQVVQALDNIADSPLADKIAAANQQALERIIQSHPVLIGFDQAINVVPGMTAKTILHAGPPITWEKMCGAMKGAVTGALVFEGLAKDLDEAAELAASGEITFSPCHEHDCVGSMAGVTSASMFMHIVKNKTYGNIAYTNMSEQMAKILRMGANDQSVIDRLNWMRDVQGPILRDAMKIIGEIDLRLMLAQALHMGDECHNRNNAGTTLLIQALTPGIIQAGYSVEQQREVFEFVASSDYFSGPTWMAMCKAAMDAAHGIEYSTVVTTMARNGVEFGLRVSGLPGQWFTGPAQQVIGPMFAGYKPEDSGLDIGDSAITETYGIGGFAMATAPAIVALVGGTVEEAIDFSRQMREITLGENPNVTIPLLGFMGVPSAIDITRVGSSGILPVINTAIAHKDAGVGMIGAGIVHPPFACFEKAILGWCERYGV	soluble
AHHHHHHGSEKLEKTVDMNIQQMINLSVLELVKLGLKYGIFKAVSKKISYIDLLNQVDVPNKPLLKKLIDHLKLLGIIEETPTHLLLNSFSYEIRFPKEEHMYLLPDWIPSFEEIYRMVDFALITPNHPHVLMDFDKDADFWDLRLSSTFHEAYRILIAKLGEIGEGSRVLDIGCGSASPAYFGKLVGEEGEYVGVDYSPALLEIAKNRTEGLPVKLKEMDASLIKPKNKYDVAIMSFVLEYIENRRSALRNALDSLESGGKLIIVDAFKDEFRNVEALEFFEGLNSAFREYPSKKYIKEVILDEGFEVKFGDYGKAILLIEKL	soluble
MKKIATATIATAGIATFAFAHHDAQAAEQNNDGYNPNDPYSYSYTYTIDAEGNYHYTWKGNWSPDRVNTSYNYNNYNNYNYYGYNNYSNYNNYSNYNNYNNYQSNNTQSQRTTQPTGGLGASYSTSSSNVHVTTTSAPSSNGVSLSNARSASGNLYTSGQCTYYVFDRVGGKIGSTWGNANNWANAAARSGYTVNNSPAKGAILQTSQGAYGHVAYVEGVNSNGSIRVSEMNYGHGAGVVTSRTISASQAASYNYIHLEHHHHHH	not soluble
MQGLELPQSYFNAAAKRQKYAMKPGLSALEKNAVIKAAYRQIFERDITKAYSQSISYLESQVRNGDISMKEFVRRLAKSPLYRKQFFEPFINSRALELAFRHILGRGPSSREEVQKYFSIVSSGGLPALVDALVDSQEYADYFGEETVPYLRGLEHHHHHH	not soluble
SMRPQPGDGERRYREASARKKIRLDRKYIVSCKQTEVPLSVPWDPSNQVYLSYNNVSSLKMLVAKDNWVLSSEISQVRLYTLEDDKFLSFHMEMVVHVDAAQAFLLLSDLRQRPEWDKHYRSVELVQQVDEDDAIYHVTSPALGGHTKPQDFVILASRRKPCDNGDPYVIALRSVTLPTHRETPEYRRGETLCSGFCLWREGDQLTKVSYYNQATPGVLNYVTTNVAGLSSEFYTTFKACEQFLLDNRNDLAPSLQTL	soluble
MGSDKIHHHHHHMLEVPVDRPVEALTIALLRDVKHACAQLGAKFVLAGATARDILMWHLHDIRAPVATRDVDVAVCAVSWESHDALIELLVQTQRFRRHSKQQQKLLFKRSAEDYEGELDIVPFGQIEGPPGEIHWPPDGDIVMTVLGFQEAVDTAQPVSIGEGLVVPVVTLPAFVLLKLIAWKDRRLMKNTDSADLLFVLRNYIDAGNIERTYEQATDLLKAANFDAGLAAAGLLGRDVRGLAYPDTRAALRALLQSADAYETLRLDLQARAAMLLGGFIDDSDALLAAFARELLTEENGSLNGTGPQVGSTGARA	not soluble
MFEINKQIGIYIHFPWCVRKCPYCDFNSHPIKDDSYLSEQYYQKLIADFDTHLDDLQAREVISIFIGGGTPSLFKAEYLDKVLQHITKNTKISINCEITLEMNPGTVERGSILSYQNIGINRISLGVQSFQDDKLKILGRIHNCENVYTTIDEIKNSKISNFNIDIMHGLPNQSFDDGIFDITQAIAMQPTHISWYQLTIEPNTLFAAKRPKFPDEEILESIEIAGKEALAHAGFKQYEVSAFAKNTLRSIHNSNYWMFGDYIGIGAGAHSKITNLKTKQIKRVWKHKHPKIYTQTDKFIKDSNIVTQDEIIYEFMLNTLRLKNGFKLSEFEQQTFLSSNIISQKLQLGIDKGLLELNANQIKPTAKGYLFLNDCINIFS	not soluble
MNRYITRGIANNLPNILQHQLWQLVSEREQEQTKDNTLVDYFHIFQFNTHRNQLYIKHKQERPAYVKTQKANINQPININKVYIIREDDVDLSYYIMLLPNEYLEHHHHHH	soluble
MSLNQNPVEEGQKFPLTIRRMGINGEGIGYFKKAVVFVPGAITGEEVVVEAVKVRDRFTEAKLNKIRKKSPNRVTAPCPVYEACGGCQLQHVAYSAQLELKRDIVIQSIEKHTKIDPTKLKIRPTIGMEDPWRYRNKSQFQTRMVGSGQVETGLFGANSHQLVPIEDCIVQQPVTIKVTNFVRDLLEKYGVPIYDEKAGSGIVRTIVVRTGVKTGETQLVFITNSKKLPKKREMLAEIEAALPEVTSIMQNVNQAKSSLIFGDETFLLAGKESIEEKLMELEFDLSARAFFQLNPFQTERLYQEVEKALVLTGSETLVDAYCGVGTIGQAFAGKVKEVRGMDIIPESIEDAKRNAEKNGIENVYYEVGKAEDVLPKWVKEGFRPDAVIVDPPRSGCDQGLIKSLLDVEAKQLVYVSCNPSTLARDLALLAKKYRIRYMQPVDMFPQTAHVETVVLLQLKDKEGHHHHHH	soluble
